Values quoted from earlier work, collected in article PMC10580911.

Molecular target: Tk-subtilisin (Thermococcus kodakarensis) (UniProt P58502)

Tk-subtilisin propeptide propeptide (from UniProt P58502)
Kd: 1.4 nM
